Assay results as given in patent US12129308 (Merck KGaA, dated 2024).
Read-outs that look alike come from different tables or passages of the source. Blank lines part the entries; values can stand above or below the binder they belong to.

Legend:
activated human MMP13 [1] = molecular target: T1, activated human MMP13 (human, UniProt P45452 104-471); test: cell-based or functional assay
Aggrecan = molecular target: T2, Aggrecan; test: competition ELISA (CAP) on Aggrecan; competitor not stated
T2 construct: also called CAP

activated rat MMP13 [2] = molecular target: T3, activated rat MMP13 (rat, UniProt P23097 99-466); test: ELISA; activated MMP13 captured via mAb511, Nanobody detected with anti-FLAG-HRP
T3 construct: also called MMP13 R. norvegicus NP_598214.1
Experimental: (§1) After a washing step in PBS+0.05% Tween20, 20 nM activated human, rat or dog MMP13 were added for one hour at RT. After a second washing step, 10-fold dilutions of periplasmic extracts or dilution series of purified Nanobodies in PBS, 0.1% casein, 0.05% Tween 20 were added for one hour at RT. Bound Nanobodies were detected with mouse anti-FLAG-HRP (Sigma (A8592)).

activated dog MMP13 [3] = molecular target: T4, activated dog MMP13 (dog, UniProt P45452 104-471 (human entry)); test: as above
T4 construct: also called MMP13 C. lupus XP_536598.3
Experimental: as §1

activated human MMP13 [4] = molecular target: T1, activated human MMP13; test: as above
Experimental: as §1

activated human MMP13 [5] = molecular target: T1, activated human MMP13; test: cell-based or functional assay; remark: listed apart in the source
activated human MMP13 [6] = molecular target: T1, activated human MMP13; test: cell-based or functional assay; remark: listed apart in the source
activated human MMP13 [7] = molecular target: T1, activated human MMP13; test: competition ELISA: dilution series of Nanobody against 0.6 nM biotinylated 40E09 (C0101040E09-biotin) on APMA-activated human full-length MMP13 captured via mouse anti-human MMP13 mAb MAB511
activated rat MMP13 [8] = molecular target: T3, activated rat MMP13; test: cell-based or functional assay
activated dog MMP13 [9] = molecular target: T4, activated dog MMP13; test: cell-based or functional assay
bovine MMP13 = bovine MMP13 (bovine, UniProt O77656 104-471); test: cell-based or functional assay
cynomolgus MMP13 = cynomolgus MMP13 (cynomolgus, UniProt A0A2K5U988 104-471); test: cell-based or functional assay
[10] = molecular target: T5, activated MMP13 (species not stated) (Homo sapiens (Human), UniProt P45452 104-471, Biotinylated in the TIMP-2 competition ELISA (sites not given). Activated form: pro-peptide removed.); test: cell-based or functional assay
[11] = molecular target: T5, activated MMP13 (species not stated); test: TIMP-2 competition ELISA; Nanobody pre-incubated with 1.26 nM activated MMP13-biotin, binding to captured TIMP-2
activated rat MMP13 [12] = molecular target: T3, activated rat MMP13; test: cell-based or functional assay; remark: listed apart in the source
activated human MMP13 [13] = molecular target: T1, activated human MMP13; test: cell-based or functional assay; remark: listed apart in the source

potency, human fluorogenic peptide assay (activated human MMP13 [1]): 0.541 nM | IC50 (Aggrecan): 21 nM
B1: C010100729 (bispecific antibody)
chain: DVQLVESGGGLVQPGGSLRLSCAASGRTFSSYAMGWFRQAPGKEREFVAAISWSGGSTYYADSVKGRFTISRDNSKNTVYLQMNSLRPEDTAVYYCTAALAVYGPSRYRYGPVGEYQYWGQGTLVTVSSGGGGSGGGGSGGGGSGGGGSGGGGSGGGGSGGGGSEVQLVESGGGLVQPGGSLRLSCAASGSTFSRYSMNWYRQAPGKQREFVAGISVGRITNYAVSVKGRFTISRDNSKNTGYLQMNSLRPEDTAVYYCNAGGLQGYWGQGTLVTVSSGGGGSGGGGSGGGGSGGGGSGGGGSGGGGSGGGGSEVQLVESGGGLVQPGGSLRLSCAASGRTFSSYTMGWFRQAPGKEREFVAAISWSGGRTYYADSVKGRFTISRDNSKNTVYLQMNSLRPEDTAVYYCAAYRRRRASSNRGLWDYWGQGTLVTVSSA
notes: also called 517A01SO-40E09SO-604F02SO-A

potency, human fluorogenic peptide assay (activated human MMP13 [1]): 0.697 nM | IC50 (Aggrecan): 32 nM
B2: C010100724 (bispecific antibody)
chain: DVQLVESGGGLVQPGGSLRLSCAASGSIFSINAMGWYRQAPGKQRELVAAISSGGSTYYADSVKGRFTISRDNSKNTVYLQMNSLRPEDTAVYYCNAAVDASRGLPYELYYYWGQGTLVTVSSGGGGSGGGGSGGGGSGGGGSGGGGSGGGGSGGGGSEVQLVESGGGLVQPGGSLRLSCAASGRTFSSYTMGWFRQAPGKEREFVAAISWSGGRTYYADSVKGRFTISRDNSKNTVYLQMNSLRPEDTAVYYCAAYRRRRASSNRGLWDYWGQGTLVTVSSA
notes: MMP13-Aggrecan bispecific Nanobody construct; also called 529C12SO-604F02SO-A

potency, human fluorogenic peptide assay (activated human MMP13 [1]): 2.42 nM | IC50 (Aggrecan): 24 nM
B3: C010100690 (bispecific antibody)
chain: EVQLVESGGGLVQPGGSLRLSCAASGFTLAYYSIGWFRQAPGKEREGVSCISSGIDGSTYYADSVKGRFTISRDNAKNTMYLQMNNLKPEDTGVYYCAADPSHYYSEYDCGYYGMDYWGKGTLVTVSSGGGGSGGGGSGGGGSGGGGSGGGGSGGGGSGGGGSEVQLVESGGGLVQPGGSLRLSCAASGRTFSSYTMGWFRQAPGKEREFVAAISWSGGRTYYADSVKGRFTISRDNSKNTVYLQMNSLRPEDTAVYYCAAYRRRRASSNRGLWDYWGQGTLVTVSS
notes: MMP13-Aggrecan bispecific Nanobody construct; also called 80A01-604F02SO

potency, human fluorogenic peptide assay (activated human MMP13 [1]): 0.0771 nM | IC50 (Aggrecan): 0.12 nM
B4: C010100702 (bispecific antibody)
chain: EVQLVESGGGLVQPGGSLRLSCAASGRTFSSYAMGWFRQAPGKEREFVAAISWSGGSTYYADSVKGRFTISRDNSKNTVYLQMNSLRPEDTAVYYCTAALAVYGPSRYRYGPVGEYQYWGQGTLVTVSSGGGGSGGGGSGGGGSGGGGSGGGGSGGGGSGGGGSEVQLVESGGGSVQPGGSLRLSCAASGSTFSRYSMNWYRQAPGKQREFVAGISVGRITNYAVSVRGRFTISRDNSEGTGYLQMNSLRPEDTAVYYCNAGGLQGYWGLGTLVTVSSGGGGSGGGGSGGGGSGGGGSGGGGSGGGGSGGGGSEVQLVESGGGLVQPGGSLRLSCAASGSTFIINVVRWYRRAPGKQRELVATISSGGNANYVDSVRGRFTISRDNSKNTVYLQMNSLRPEDTAVYYCNVPTTHYGGVYYGPYWGQGTLVTVSSGGGGSGGGGSGGGGSGGGGSGGGGSGGGGSGGGGSEVQLVESGGGLVQPGGSLRLSCAASGSTFIINVVRWYRRAPGKQRELVATISSGGNANYVDSVRGRFTISRDNSKNTVYLQMNSLRPEDTAVYYCNVPTTHYGGVYYGPYWGQGTLVTVSS
notes: also called 517A01SO-40E09SOvar-114F08SO-114F08SO

potency, human fluorogenic peptide assay (activated human MMP13 [1]): 0.551 nM | IC50 (Aggrecan): 0.45 nM
B5: C010100682 (bispecific antibody)
chain: EVQLVESGGGLVQPGGSLRLSCAASGSIFSINAMGWYRQAPGKQRELVAAISSGGSTYYADSVKGRFTISRDNSKNTVYLQMNSLRPEDTAVYYCNAAVDASRGLPYELYYYWGQGTLVTVSSGGGGSGGGGSGGGGSGGGGSGGGGSGGGGSGGGGSEVQLVESGGGLVQPGGSLRLSCAASGSTFIINVVRWYRRAPGKQRELVATISSGGNANYVDSVRGRFTISRDNSKNTVYLQMNSLRPEDTAVYYCNVPTTHYGGVYYGPYWGQGTLVTVSSGGGGSGGGGSGGGGSGGGGSGGGGSGGGGSGGGGSEVQLVESGGGLVQPGGSLRLSCAASGSTFIINVVRWYRRAPGKQRELVATISSGGNANYVDSVRGRFTISRDNSKNTVYLQMNSLRPEDTAVYYCNVPTTHYGGVYYGPYWGQGTLVTVSS
notes: MMP13-Aggrecan bispecific Nanobody construct; also called 529C12SO-114F08SO-114F08SO

EC50 (activated rat MMP13 [2]): 0.44 nM | EC50 (activated dog MMP13 [3]): 0.38 nM | EC50 (activated human MMP13 [4]): 0.66 nM | IC50, human collagenolytic assay (activated human MMP13 [5]): 10.2 nM | IC50 (read off the curve); fluorogenic Collagen assay, partial inhibition [left graph] (activated human MMP13 [6]): ~20 nM | IC50 (read off the curve) (activated human MMP13 [7]): ~4 nM
B6: C0101PMP040E09 (VHH)
VHH: EVQLVESGGGSVQAGGSLRLSCAASGSTFSRYSMNWYRQAPGKQREFVAGISVGRITNYAVSVRGRFTISRDNAEGTGYLQMNSLKPEDTAVYYCNAGGLQGYWGLGTQVTVSS
notes: Profile 1 Nanobody; also called C0101040E09

IC50, rat fluorogenic peptide assay (activated rat MMP13 [8]): 2.1 nM | IC50, dog fluorogenic peptide assay (activated dog MMP13 [9]): 3.4 nM | IC50, human collagenolytic assay (activated human MMP13 [5]): 2.3 nM | IC50, human fluorogenic collagen assay (activated human MMP13 [5]): 10.9 nM | IC50, human fluorogenic peptide assay (activated human MMP13 [5]): 4.6 nM | IC50, bovine fluorogenic peptide assay (bovine MMP13): 6.4 nM | IC50, cyno fluorogenic peptide assay (cynomolgus MMP13): 3 nM | IC50, fluorogenic peptide assay [10]: 2.5 nM | IC50 [11]: 2.6 nM | IC50, (adapted) rat fluorogenic peptide assay (activated rat MMP13 [12]): 2.64 nM | IC50, human fluorogenic collagen assay (activated human MMP13 [13]): 10.8 nM
B7: C0101PMP517A01 (VHH)
VHH: DVQLVESGGGLVQPGGSLRLSCAASGRTFSSYAMGWFRQAPGKEREFVAAISWSGGSTYYADSVKGRFTISRDNSKNTVYLQMNSLRPEDTAVYYCTAALAVYGPNRYRYGPVGEYNYWGQGTLVTVSS
notes: Profile 2 Nanobody; also called C0101517A01; C010100087 (parental)

potency, human fluorogenic peptide assay (activated human MMP13 [1]): 1.08 nM | IC50 (Aggrecan): 0.99 nM
B8: C010100681 (bispecific antibody)
chain: EVQLVESGGGLVQPGGSLRLSCAASGFTLAYYSIGWFRQAPGKEREGVSCISSGIDGSTYYADSVKGRFTISRDNAKNTMYLQMNNLKPEDTGVYYCAADPSHYYSEYDCGYYGMDYWGKGTLVTVSSGGGGSGGGGSGGGGSGGGGSGGGGSGGGGSGGGGSEVQLVESGGGLVQPGGSLRLSCAASGSTFIINVVRWYRRAPGKQRELVATISSGGNANYVDSVRGRFTISRDNSKNTVYLQMNSLRPEDTAVYYCNVPTTHYGGVYYGPYWGQGTLVTVSSGGGGSGGGGSGGGGSGGGGSGGGGSGGGGSGGGGSEVQLVESGGGLVQPGGSLRLSCAASGSTFIINVVRWYRRAPGKQRELVATISSGGNANYVDSVRGRFTISRDNSKNTVYLQMNSLRPEDTAVYYCNVPTTHYGGVYYGPYWGQGTLVTVSS
notes: MMP13-Aggrecan bispecific Nanobody construct; also called 80A01-114F08SO-114F08SO
